Values of other authors, collected in article PMC3417354.

Target: PCNA (Homo sapiens) (UniProt P12004)
Sequence (P12004 whole entry): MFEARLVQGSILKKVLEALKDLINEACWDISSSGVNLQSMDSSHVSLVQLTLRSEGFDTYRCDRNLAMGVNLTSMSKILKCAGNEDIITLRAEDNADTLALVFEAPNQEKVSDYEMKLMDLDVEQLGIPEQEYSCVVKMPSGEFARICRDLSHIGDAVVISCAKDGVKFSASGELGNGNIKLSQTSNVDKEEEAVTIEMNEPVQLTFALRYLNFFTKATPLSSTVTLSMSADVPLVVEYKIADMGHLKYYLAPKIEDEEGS

p21 peptide 141-160, sequence (P38936 141-160): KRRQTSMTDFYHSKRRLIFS

For “p21 peptide 141-160 (from UniProt P38936)”, the Kd is given as 88 nM.
